Measurements as given in the supplement of paper PMC10266784.

B1: library; numbered along this chain (parent)
chain: MAAAAAAAAEQQSSNGPVKKSMREKAVERRSVNKEHNSNFKAGYIPIDEDRLHKTGLRGRKGNLAICVIILLFILAVINLIITLVIWAVIRIGPNGCDSMEFHESGLLRFKQVSDMGVIHPLYKSTVGGRRNENLVITGNNQPIVFQQGTTKLSVENNKTSITSDIGMQFFDPRTQNILFSTDYETHEFHLPSGVKSLNVQKASTERITSNATSDLNIKVDGRAIVRGNEGVFIMGKTIEFHMGGNMELKAENSIILNGSVMVSTTRLPSSSSGDQLGSGDWVRYKLCMCADGTLFKVQVTSQNMGCQISDNPCGNTH

Variants of: B1
Assay: SGCB cell-surface expression functional score (HA stain, bin4 vs bin1, normalised to synonymous) (log10 ratio); higher = more cell-surface SGCB (functional)
How it was run: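 HEK293 cells stably expressing alpha-, gamma- and delta-sarcoglycan received codon-saturation libraries of HA-tagged, YFP-fused human beta-sarcoglycan by lentiviral transduction at MOI <0.1, performed in duplicate. Cells positive for YFP were sorted after 72 hours and cultured for 5–7 days, then stained on ice with Alexa Fluor 647 anti-HA and fixed. Fixed cells were sorted into four 5% intensity bins and amplicon-sequenced, and the log ratio of highest-bin to lowest-bin variant frequency, as a median over codons and transductions, gives the functional score. Per section, synonymous variants were scaled to mean 0, SD 0.5.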

SGCB cell-surface expression functional score (log10) of substitutions, site by site:
T186: I 0.3 | Y 0.08 | M -1.55 | C -0.92 | G -0.44 | P -1.73 | L -0.15 | E 0.13 | W -1.12 | F -0.05 | S -0.18 | V -0.85 | D 0.53 | Q 0.7 | N -0.55 | A 0.54 | K 0.28 | R 0.06 | H 0.62
F180: E -1.03 | H -2.25 | D -1.86 | A -2.1 | V -2.01 | Q -1.66 | S -1.41 | N -2.28 | P -1.31 | Y -1.77 | C -1.87 | T -1.29 | M -1.82 | G -1.85 | K -1.78 | R -1.76 | L -0.42 | I -1.72
Y184: C -0.8 | K -1.77 | E -0.73 | I -1.85 | H -0.69 | A -0.95 | N -1.22 | S -1.04 | T -1.17 | G -1.39 | F 0.26 | V -2.52 | R -1.19 | M -1.01 | Q -0.78 | L -1.63 | P -0.93 | D -0.8
H187: M -0.22 | G -1.69 | Y -0.18 | Q -0.38 | E 0.18 | P -1.29 | T -1.03 | R -0.76 | F -0.63 | L -1.47 | W 0.48 | K -0.37 | V 0.03 | N -0.57 | D 0.45 | S -0.12 | C 0.07 | I -0.51 | A -0.81
L179: N -1.22 | G -0.53 | Y -0.54 | T -1.12 | M -1.01 | D -1.87 | I -0.73 | H -1.99 | P -0.55 | E -1.07 | Q -0.03 | K 0.28 | R 0.67 | S -1.32 | W 1.37 | V -0.27 | F 0.08
K196: H 1.37 | C -0.14 | R 0.33 | T -0.64 | D -2.29 | S -0.1 | G -0.43 | M 0.21 | Q 0.02 | E -0.37 | F -0.74 | P -0.01 | L -0.57 | A 0.53 | V -0.07 | I -0.46 | N -0.02
F189: G -1.93 | C -1.67 | R -2.1 | A -0.91 | M -0.25 | I -1.15 | H -1.03 | T -1.23 | L -0.46 | P -0.39 | D -1.52 | W -1.38 | Q -1.04 | S -1.1 | N -2.42 | Y -0.98 | V -1.22 | K -2.58 | E -1.49
H190: P 0.42 | D -0.59 | W -0.79 | A -0.38 | M -0.84 | S 0.28 | I -0.36 | G 0.07 | Y 0.55 | C -0.62 | F 0.15 | T 0.55 | E -0.09 | N 0.89 | R 0.34 | K 0.07 | Q 0.16 | L -0.13 | V -0.28
P192: I -2.12 | L -1.17 | S -0.21 | D -1.49 | W -1.19 | T -1.46 | N -1.53 | R -1.04 | F -0.5 | E -1.13 | C -0.78 | Q -2.22 | A -1.12 | V -1.19 | H -1.15 | Y -1.09 | K -1.31 | M -1.22 | G -0.57
T182: V -1.47 | F -2.63 | L -1.43 | S -1.55 | K -0.75 | I -1 | C -2.09 | R -1.25 | N -1.25 | H -1.44 | W -1.65 | A -1.25 | M -1.87 | Q -1.49 | Y -2.23 | P -1.25 | E -1.6 | D -2.4 | G -1.06
E185: I -0.23 | M -1.36 | C 0.41 | D 0.34 | T -1.1 | Q -0.17 | K -0.01 | F -0.44 | A 0.2 | W -0.87 | H -1.02 | N -0.3 | V -0.42 | G -0.26 | P 0.33 | S 0.53 | R -0.63 | Y 0.02 | L -0.11
S181: Y -1.76 | I -1.25 | F -1.53 | M 0.13 | V -1.52 | D -0.41 | P -1.69 | H -1.65 | C -0.89 | E -1.4 | W -1.97 | L -1.37 | T -0.51 | G -0.94 | A 0.2 | Q -1.57 | K -1.64 | R -0.87 | N -1
S193: Y -0.19 | L 0.22 | G 0.24 | M -0.52 | F 0.83 | A 0.18 | W -1.15 | N 0.79 | R 0.17 | K 0.33 | H 1.59 | P -0.22 | T -0.16 | I 0.78 | V 0.52 | C 0.3 | E 1.32
V195: D -2.29 | C 0.64 | M -0.5 | A 0.11 | S -0.44 | T -0.23 | W 0.45 | E -0.23 | R -1.37 | Y -2.58 | F -1.74 | H -1.52 | L -0.39 | I 0.09 | P -1.1 | K -1.88 | N -1.73 | G -1.83 | Q -1.76
E188: K -0.62 | I -1.93 | N -0.55 | C -1.07 | S -0.61 | P -0.15 | L -1.16 | F -1.65 | R -0.8 | G -0.55 | Q 0.29 | D -0.04 | A -1.13 | V -0.11 | W -0.68 | M -2.13 | H -0.17 | Y -1.16 | T -0.38
G194: M -1.78 | D 0.64 | F -0.14 | P -0.58 | Y -1.13 | E -0.09 | R -0.07 | Q 0.38 | L -1.02 | T -0.71 | C -0.15 | N 0.05 | K 0.01 | H 0.27 | S 0.34 | A -0.67 | W 0.23 | I -1.66 | V -1.31
L191: E -1.09 | N -2.28 | G -1.07 | W -0.06 | V -0.49 | Y -1.61 | D -1.17 | K -0.32 | T -1.31 | M 0.28 | Q -1.1 | R -1.37 | C -0.5 | H -1.37 | S -1.19 | F -0.08 | A -1.71 | P -1.47 | I -0.16
D183: L -0.71 | G -1.31 | K -0.36 | C -1.17 | I -1.89 | Q -0.56 | A 1.15 | V -0.86 | H -0.33 | W 0.54 | T -0.79 | M -0.83 | S -0.22 | E 0.35 | F -1.63 | N -0.15 | P -1.43 | R -0.21 | Y -0.53
